Target: N-terminal Nanoluciferase-tagged p97-N domain (human)
Test: FRET or BRET; NanoBRET in p47-knockout U2OS cells: Nanoluciferase-p97-N donor, p47-UBX-HaloTag acceptor, co-transfected with antibody-fragment or p47-FLAG plasmids; compared with scFv-RNase and scFab-RNase controls

Sequence of N-terminal Nanoluciferase-tagged p97-N domain (human) (P55072 2-806): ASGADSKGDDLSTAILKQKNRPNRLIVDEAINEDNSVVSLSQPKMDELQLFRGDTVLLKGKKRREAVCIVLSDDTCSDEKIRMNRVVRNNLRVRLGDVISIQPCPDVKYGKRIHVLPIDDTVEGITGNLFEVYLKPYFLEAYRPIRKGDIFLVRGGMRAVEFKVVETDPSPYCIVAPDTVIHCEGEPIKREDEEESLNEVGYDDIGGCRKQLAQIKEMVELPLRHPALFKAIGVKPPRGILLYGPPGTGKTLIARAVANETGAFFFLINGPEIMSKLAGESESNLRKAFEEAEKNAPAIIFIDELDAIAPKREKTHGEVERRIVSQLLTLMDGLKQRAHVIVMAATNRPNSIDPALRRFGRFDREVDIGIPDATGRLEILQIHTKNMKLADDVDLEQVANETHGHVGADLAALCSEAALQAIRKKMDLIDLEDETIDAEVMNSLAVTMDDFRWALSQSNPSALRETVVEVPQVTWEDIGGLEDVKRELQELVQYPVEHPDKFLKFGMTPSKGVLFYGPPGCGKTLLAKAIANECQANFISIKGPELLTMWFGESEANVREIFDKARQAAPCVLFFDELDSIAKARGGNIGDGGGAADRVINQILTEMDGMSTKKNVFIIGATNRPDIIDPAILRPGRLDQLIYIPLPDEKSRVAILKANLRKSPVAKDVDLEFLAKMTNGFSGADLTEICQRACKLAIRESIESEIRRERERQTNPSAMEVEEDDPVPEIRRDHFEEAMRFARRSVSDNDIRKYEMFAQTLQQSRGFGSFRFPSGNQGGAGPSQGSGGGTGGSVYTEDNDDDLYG

B1: p47-FLAG (natural protein)
chain: MAAERQEALREFVAVTGAEEDRARFFLESAGWDLQIALASFYEDGGDEDIVTISQATPSSVSRGTAPSDNRVTSFRDLIHDQDEDEEEEEGQRFYAGGSERSGQQIVGPPRKKSPNELVDDLFKGAKEHGAVAVERVTKSPGETSKPRPFAGGGYRLGAAPEEESAYVAGEKRQHSSQDVHVVLKLWKSGFSLDNGELRSYQDPSNAQFLESIRRGEVPAELRRLAHGGQVNLDMEDHRDEDFVKPKGAFKAFTGEGQKLGSTAPQVLSTSSPAQQAENEAKASSSILIDESEPTTNIQIRLADGGRLVQKFNHSHRISDIRLFIVDARPAMAATSFILMTTFPNKELADESQTLKEANLLNAVIVQRLT
How did the reduction of the BRET ratio of the p97-N/p47-UBX pair turn out when B1 was run?
Its reduction of the BRET ratio of the p97-N/p47-UBX pair is 15%.
